Assay results: patent publication US20200024316A1 (GENOIMMUNE THERAPEUTICS, published 2020)

These binders were tested against T1, HLA-A0201 on T2 cells (human) (assay: T2 cell HLA-A0201 assay, flow cytometry with FITC anti-HLA-A0201 mAb, peptide 100 µM).
T1 construct: MHC class I molecule on T2 cells; also called HLA-A0201 molecule; HLA-A2
Description: Cells were collected by centrifugation of the cell culture at 200 g for 5 minutes. […] The mean fluorescence intensity (MFI) was then detected and analyzed by flow cytometer (BD FACSJazz™) and its software. The fluorescence index (FI) was calculated by using the following formula:

Binder	Average fluorescence intensity	FI (fluorescence index)
TLISSLRPI (Made by solid phase synthesis, purified by reverse phase HPLC, purity >90%) [wild-type peptide TLISSLRPI]	672	1.99
TLISSLMPI (Made by solid phase synthesis, purity >90%; also called peptide (a); tumor antigen peptide) [mutant peptide TLISSLMPI]	683	2.04
TLISSLMPL [variant peptide TLISSLMPL]	692	2.08
TLISSLMPV [variant peptide TLISSLMPV]	714	2.18
TMISSLMPI [variant peptide TMISSLMPI]	701	2.12
TMISSLMPL [variant peptide TMISSLMPL]	764	2.4
TMISSLMPV [variant peptide TMISSLMPV]	776	2.46
